This note sets out measurements from article PMC5956149.

The experiment concerns the target GFP-tagged MtrB (cytosolic catalytic domain of MtrB with GFP downstream) (Mycobacterium tuberculosis). The experiment can be described thus: MST.
“MtrB wild type (cytosolic catalytic domain) (domain or fragment)” registered a Kd of 1170 nM.

As to “MtrB^N419D (mutant defective in ATP binding, cytosolic catalytic domain) (domain or fragment)”, the Kd came to 770 nM.

Regarding “MtrB^H305Q (phosphorylation site mutant, cytosolic catalytic domain) (domain or fragment)”, the dissociation constant (Kd) was 410 nM.

Broadly, the Kd is the equilibrium constant for the complex coming apart. High values mean a looser complex, low ones a tighter complex.
